# Assay: soluble on expression in E. coli; label from the status in PepcDB or PDB records
row,Sequence,soluble on expression in E. coli
1,GPGSMEAAPAAAAPRLPQAPKRPREESDAPLQESSNGSVPANFSNEASVTTPVAGTELVVDVDQPETNAQASAVDAPRSRSRGLAAVGPGSTSPVAASRSGTDGANNCQPAAAVTTLSSSSASADARRFKQPTLAAYGLVSDTMTLKKEISDRDSHIEELNREVEGLRAEAGRRNDQINFMDGQCRQYQRKLEHFQSVMRQEMLSAAQKDRSEARRVLYQKHFELGQTATWHSNGQTVWMEGDRVRTLFLKLADLTQKREEVEALKKAAQSNVKHLARQEREREDSGAGPDLQDALMAAQMEYQLRASEHAALTNTIADVKLKQTEIEHEKKAFVKEMRRVNDEDTSEFLAIPTIGEGDRYVLMHLLGKGGFSEVWKAFDLVEGRYVACKIHHIQREWPAQTRTHYLRHAQRELDIMRALDHPHLTHLYDVFPRGDNMFISVMEYSNGMDLDTYLKRYRIFKEADARLIFLQVVDVLRYLASLDSPIIHYDLKPANILLHRDDPTILDIKITDFGLSKIIGATREGPSDNPSIELTSQGTGTYWYLPPECFETSSTPRISNKVDIWSAGVIFYQMLFGKRPFAEGESQRRIWQEKLIIQSARTLHFPDTPKVSEEAKDIIRGCLAFNERERCDVFQLSQDPYLFRTSRRSAHKAKSAAPAGVGSSNSPLMPPVTDATPAS,soluble
2,MSLERPLCISYIRFSKATQAEGSSLERQLQLSRTYAEEHGLVLDDKHSYQDLGKSAFTSEHVKEGEFGVFLEFVKQGRVPKGSVLLVESLDRLSRESVLTAFKQFQEILDAGIKIVTLSDKMEYTKEGFEANIGNIFISLGIMARANEESLRKSERICAAWRLKRKNLHNIKLTANCPGWLELTPDKKDFILKEDRVEIVKQIFELSLSGLGVKAISTILNKQKIEPFRSKIGWYQTTVRKILSNSAVIGEFQPHVFGSKHSKPVPDGELIKDYFPPIIDTDTFYAVQAKLKNGAHRPGRTAKVENLFSGYTRCGYCGSRMDVVARHNVGGEVRYLVCDSARRGVKCSYISMKCNEIEKAFFEYCREIDIRYVLRAEQQADQNRLNELRKSLTARNGKLMKVQKQIDMLNVFLDDITERAELEHYHEQIKKKLEEKTNLSEEIEKLSKGICIAEYDNNNIDVRVQNLLTLDKAQNKSVKEDDKIMFRIRLRDELRQIISQILVYPRGSVFSDEQIEQKERDYEIKIKSASDSEKHILKHEKTIDLDGMRQSQQNTKDDRFFVVRFKNGNYRTIKYDKKQQAYRVTSELINDKLNWWMGNKEMAPIFREEEELHPFETEFELDSNEGHHHHHH,not soluble
3,MTALEVLGGWPVPAAAAAVIGPAGVLATHGDTARVFALASVTKPLVARAAQVAVEEGVVNLDTPAGPPGSTVRHLLAHTSGLAMHSDQALARPGTRRMYSNYGFTVLAESVQRESGIEFGRYLTEAVCEPLGMVTTRLDGGPAAAGFGATSTVADLAVFAGDLLRPSTVSAQMHADATTVQFPGLDGVLPGYGVQRPNDWGLGFEIRNSKSPHWTGECNSTRTFGHFGQSGGFIWVDPKADLALVVLTARDFGDWALDLWPAISDAVLAEYTLEHHHHHH,soluble
4,VYWLNWTDRTRKFTIYNDIIERSLLTLKMMSFYNGAVLASLTTSLPEAVGEVRNWDYRFCWLRDASMSIETLFKIGHADATRKFMKFIQSTFVAEHDTYQIMYGIRGERKLTEVILDHLSGYKNSQPVRIGNDAYHQRQNDSFGYLMDLIYQYYRLMPGTLDEIEDMWEMVKSIMTTVMEDWRKPDKGIWEIRGEGQHFVSSKVMCWVALDRGARIARILNKYENSRRWEEEADAIKADVMRNGWKEEIQSFSQAYGNLDLDSSLLLMEPYGFIDADDIRYHKTVKAVKQSLLHKGLMYRYNTHDDFGCPSSAFTICTFWLIRALYVIGEKDEARCLFDEILQYSNHLGLFSEDIDFETKEQLGNFPQAYSHLALVNTAVLFAE,not soluble
5,MKVAGTSAPPETAPAASRPGLRELKKQRTRDLLLRSALELFTERGYEETTVDDIAEAADVSQRTFFRYFASKEDAAFFVARLAESHFVRAVLARPPEEAPLDALRRALAESWSTIGEAVEQLVPLELHMRFYRVIESTPALLAAHLRRATELEEEIARVVAVREGLDVDTDPRPRVIVAVFGAVMRVTERIWSARDDASLAALRDLTADYLDQVAPALTGNWRRAET,soluble
6,MGSDKIHHHHHHMYYRKRFCVGRNNERRMKAMARDTGLDHLGAMRAFVRVVEMGSFSAVAKEMHVSTSTVARKITAIEEALGVALLHRSTHSVTLTEAGHIYLERAVTLIADLDDTLRVVAELNAQPSGPLKLTAPVAFGRRHLAPLIAPFLARYPTIQLDVRLTDNHNDLVAGGYDLDIHEGENYLDNLVVHRLSRNDSILCATPGYLDRCGRPATPDDLLHHNCLRYVHPEGDPRWELVRGDARHSVLPAGNLVTDHSELLLEATCAGLGIAEFEIWLVRDLLASGRLEAVLPRYRLHNKLTGEHIYIAYLANRRSSAKLRVLKDFLADQLAHIGELSEVELMKIRDAGA,not soluble
7,MHDANIRVAIAGAGGRMGRQLIQAALALEGVQLGAALEREGSSLLGSDAGELAGAGKTGVTVQSSLDAVKDDFDVFIDFTRPEGTLNHLAFCRQHGKGMVIGTTGFDEAGKQAIRDAAADIAIVFAANFSVGVNVMLKLLEKAAKVMGDYTDIEIIEAHHRHKVDAPSGTALAMGEAIAHALDKDLKDCAVYSREGHTGERVPGTIGFATVRAGDIVGEHTAMFADIGERLEITHKASSRMTFANGAVRSALWLSGKESGLFDMRDVLDLNNL,soluble
8,MAHHHHHHMCVKCLFLARSEMAIEESACNDDSQAVTEATSERTVNSATVFRYPFNTMDLGWLVGYIDAFLVKSERWAAAMRLTTCFMTFTVLHEDPLMEDATFQLHKTMLDRSIKKSWPRRNRDLSNTFDAAYHVFETICIVSKYPNLDPAGKAGILRMSEKLIQGMEKPMDNVVIKIDLKKKSETLHATLARLQALGRAPESLSAFDALMASLKMVFFCYVASLGINNMMLDANLNKMDSYVCCEGCPCHAKLRTTYTLFIRDVEKTKVIDCLLIMAVKEDDAFLSKLAEGLFTQFDCRSPFLEKPVRRIQNGALFMVRIALFDAFRHVKALLVDLRASPASLAPQIDNVVLALYIARREMRGMKGLNEHLPLVNKALATADSIYSRLGTENASQELRTLKDYITKIFFLVSAPEFHLAVHSKDPLVGKGAKLCCGNPDCPGKVKEMLKCSGCRVTFYCSVTCQRDDWKTHRFLCKEMGCRKAAPAPIKMAECSTETLKPAAFHG,not soluble
9,MGETKLFFGPNHPGMHGNFSVHMYVEGDIVKKARPVPGFLHRGFEKLMERRYWYSNISLIPRICVPEPDINEICYAMAIEKIAKVEVPERAQWIRMIVLELARIANHIWTVGGIGGPLGLYTASHWGVADRDRILDIFEALSGARVYHMYIIPGGVRKNMTPKIEEMIWKTLDYIESRLPDYENLIFKNRIVHSRLRGRLILTREQAVEMGVTGVGLRATGVEYDIRKVDPYLFYDRVEFEVPTATDGDAFSRVYLKFKEIPQSIKIIRQALEKMPQADRVNVPIGRGNGLRRIVPKGMAYAHVESTRGEYGFFVVSDGKNKPYRVAVRGASYPQGLYGIEKYLPGTRIEDVPIWLATMDVCAPEIDR,soluble
10,MQPGYNGHGRGIYNFIGMTANRRSNLHNTVALDPDILTDTFQQCLFYQYAQCSILLMKEGATGFPFALYAPSTVSSYLYMR,not soluble
11,RIEDIETKNIQYEERVSVQADLGSQTLHVRGLIDSGNQLYDPLTKTPVMIIYIDKLEPIFGTAETMIIRNTDPLEAIEQLDDSFRFLDKMRLIPYRGVGQQNQFLLCVKPDHVTIMTKEEMISADKCLIGISTTKLSADGEFDAIIHPKMLSGKAVKHVS,soluble
12,AMSYTPGQPVTAVVQRVEIHKLRQGENLILGFSIGGGIDQDPSQNPFSEDKTDKGIYVTRVSEGGPAEIAGLQIGDKIMQVNGWDMTMVTHDQARKRLTKRSEEVVRLLVTRQ,soluble
13,MSAEASGPAAAAAPSLEAPKPSGLEPGPAAYGLKPLTPNSKYVKLNVGGSLHYTTLRTLTGQDTMLKAMFSGRVEVLTDAGGWVLIDRSGRHFGTILNYLRDGSVPLPESTRELGELLGEARYYLVQGLIEDCQLALQQKRETLSPLCLIPMVTSPREEQQLLASTSKPVVKLLHNRSNNKYSYTSTSDDNLLKNIELFDKLALRFHGRLLFLKDVLGDEICCWSFYGQGRKIAEVCCTSIVYATEKKQTKVEFPEARIFEETLNILIYETPRGPDPALLEATGGAAGAGGAGRGEDEENREHRVRRIHVRRHITHDERPHGQQIVFKD,soluble
14,DSYYNGHQDGDAIAYLILANKLIHELCPDAITIAEEVSGMPGLALPLADGGYGFDYRLAMNIPDFWIKLIKEHRDEDWNPGDIWYQLTNRRQEEKTISYAESHDQALVGDKTIIFRLIDADMYWYMNKQSCVHSVDRGIALLKMIRLFTATTMNGGYLNFMGNEFGHPEWIDFPREGNGWSYKYARRQWSLADSPFLRYAGLHLFDQDMIAMIRSVESFHKLPLREYWLKREEQVICYGRGDFFFVFNFHPERSYSDYPIPLPAGKYSVAMSTDARKYEGFGRVDEWVEHFTLPDGSKDRFTHEQYLNLYLPARSALVLKLAE,not soluble
15,MGHHHHHHSHMIHIVQAKDKGQTARATKFLALDKCLPHRDFLQILEIEHDPSAPDYLEYDIEWLTILRATDDLINVTGRLWNMPESNGLHARWDYSATEEGMKEVLEKLNHDLKVPCNFSVTAACYDPSKPQTQMQLIHRINPQTTEFCAQLGIIDINVRLQKSKEEHHVCGEYEEQDDVESNDSGEDQSEYNTDTSALSSINPDEIMLDEEEDEDSIVSAHSGMNTPSVEPSDQASEFSASFSDVRILPGSMIVSSDDTVDSTIDREGKPGGTVESGNGEDLTKVPLKRLSDEHEPEQRKKIKRRNQAIYAAVDDDDDDAA,not soluble
16,MDPYQQGGRGGGFPARGGRGGGHGGGYPQEGYGAAAGGYGGYDPYNPYGAAGGYGMYPGQGYPPQEMTSPLDAEIQAVLREIHLEVTGLETSGDQFRNARRLLNSEKERLENNIDPEWLEVDVAKPVKVCKKILVPIYRHPNFNFIGKVLGPKGATLQTLCKTHKCHIYILGRGSTKDREKEAELLASGDPQHAHFSGPLHVKVETVAPAYIAYGRVAAVIEELSRILQPIHEDTTPAHLKNGSGDGEEKEDEEKKEGGEGGGRGGRGGRGGFRGGFRGGRGGFGGPGGPMGGRGGMGGMGGRGRGGQAAGFRPY,not soluble
17,MDGRPLNRTTRAVAMIAVTIPAHNEQALIGPCLQSIRVAAQHPALQGEAVEIHVALDRCTDQTGVIARAHGAITQEVCGGVGVARAAAASAAIARGAHWLACTDADTRVPPDWLMAQLACAADAFCGVVEVTDWRDHLSQTRAAFLASEIRHDGHPHVHGANLGMRTSAYLAAGGFSNASSSEDVALVAALEQAGMRIARLASPVVNTSARRSARASGGFADYLLRLEAALLAASPSLGLEHHHHHH,not soluble
18,MLKLSKIVLISSLLVLVQQISYAKIGGFELIVNVPIGAGITLVNKNVSVAGNPKLGGNFQIGLEANIGYMFQIMDNMGVSLLGSLGYDFTGFSYSKNNNTENYKNTVHDIYRFLS,not soluble
19,MISVMQQMINNDSPEDSKESITSVQQTPFFWPSAAAAIPSIQGESRSERESETGSSPQLAPSSTGMVMPGTAGMYGFGPSRMPTANEFGMMMNPVYTDFYQNPLASTDITIPTTAGSSAATTPNAAMHLPWAISHDGKKKRQPYKKDQISRLEYEYSVNQYLTNKRRSELSAQLMLDEKQVKVWFQNRRMKDKKLRQRHSGPFPHGAPVTPCIERLIN,not soluble
20,SLYMDTAVSPFYFVSNAPRELLDGVSQTLASRDQLELENRALRQELLLKNSELLMLGQYKQENARLRELLGSPLRQDEQKMVTQVISTVNDPYSDQVVIDKGSVNGVYEGQPVISDKGVVGQVVAVAKLTSRVLLICDATHALPIQVLRNDIRVIAAGNGCTDDLQLEHLPANTDIRVGDVLVTSGLGGRFPEGYPVAVVSSVKLDTQRAYTVIQARPTAGLQRLRYLLLLWGADRNGANPMTPEEVHRVANERLMQMMPQVLPSPDAMGPKLPEPATGIAQPTPQQPATGNAATAPAAPTQPAANRSPQRATPPQSGAQPPARAPGGQ,soluble

# From the DeepSol protein solubility set
